Paper PMC7036035

What was measured:
[1] = tested on: C[C@H](CCC(=O)NCCS(=O)(=O)O)[C@H]1CC[C@H]2[C@@H]3CC[C@@H]4C[C@H](O)CC[C@]4(C)[C@H]3C[C@H](O)[C@]12C; assay: purified protein; conditions: pH 7.5; 37.0 °C
[2] = tested on: C[C@H](CCC(=O)NCCS(=O)(=O)O)[C@H]1CC[C@H]2[C@@H]3[C@@H](O)C[C@@H]4C[C@H](O)CC[C@]4(C)[C@H]3CC[C@]12C; assay: purified protein; conditions: pH 7.5; 37.0 °C

B. theta BSH (BT_2086) (Bacteroides thetaiotaomicron VPI-5482)
Km [1]: 3.4 mM | kcat [1]: 0.215 ± 0.01 s⁻¹ | kcat/Km [1]: 63.3 ± 11.7 M⁻¹ s⁻¹ | Km [2]: 8.2 mM | kcat [2]: 0.255 ± 0.0133 s⁻¹ | kcat/Km [2]: 31.7 ± 5 M⁻¹ s⁻¹
